Source: USRE50282
*1 amine or outer side, *2 acyl side, *3 side chain or, on linkers, in order; H or OH if unused. Bridges are numbered along the chain shown (N, C = ends). Primed or numbered codes have the meaning given here. The star is where a group is joined. Biotin = O=C1N[C@H]2[C@H](CS[C@H]2CCCCC(=O)*)N1; Glutaryl = O=C(CCCC(=O)[*:2])[*:1]; HOOC(CH2)6CO = O=C(O)CCCCCCC(=O)*; PEG4′ = not defined here

molecular target: human IgG (Chugai Pharmaceutical Co., Ltd.) (human); test: SPR (BIAcore T200), IgG immobilised

| fold decrease in affinity against Type I [times] | Binder |
| --- | --- |
| 10 | {Biotin-PEG4′}-GDDCAYHKGELVWCTFH-NH2 (disulfide 4-14 (inferred)) [Type I(R8K) IgG-binding peptide, …-NH2] |

molecular target: human IgG (Chugai Pharmaceutical Co., Ltd.) (human); test: SPR (BIAcore T200), IgG immobilised; 1:1 binding fit

| Kd [nM] | Binder |
| --- | --- |
| 9.1 | {Biotin-PEG4′}-GPDCAYHRGELVWCTFH-NH2 (disulfide 4-14 (inferred)) [Type I IgG-binding peptide, …-NH2] |
| 365 | {Biotin-PEG4′}-GDDCAYHK(HOOC(CH2)6CO)GELVWCTFH-NH2 (disulfide 4-14 (inferred)) [Type I(R8K)-DSS-OH, GDDCAYHK(DSS-OH)…-NH2] |
| 315 | {Biotin-PEG4′}-GDDCAYHK(Glutaryl)GELVWCTFH-NH2 (disulfide 4-14 (inferred)) [Type I(R8K)-DSG-OH, GDDCAYHK(DSG-OH)…-NH2] |
| 156 | {Biotin-PEG4′}-GDDCAYHKGELVWCTFH-NH2 (disulfide 4-14 (inferred)) [Type I(R8K) IgG-binding peptide, …-NH2] |

molecular target: human IgG (Chugai Pharmaceutical Co., Ltd.) (human); test: SPR (BIAcore T200), IgG immobilised; equilibrium value

| Kd [nM] | Binder |
| --- | --- |
| 10 | {Biotin-PEG4′}-GPDCAYHRGELVWCTFH-NH2 (disulfide 4-14 (inferred)) [Type I IgG-binding peptide, …-NH2] |
| 389 | {Biotin-PEG4′}-GDDCAYHK(HOOC(CH2)6CO)GELVWCTFH-NH2 (disulfide 4-14 (inferred)) [Type I(R8K)-DSS-OH, GDDCAYHK(DSS-OH)…-NH2] |
| 330 | {Biotin-PEG4′}-GDDCAYHK(Glutaryl)GELVWCTFH-NH2 (disulfide 4-14 (inferred)) [Type I(R8K)-DSG-OH, GDDCAYHK(DSG-OH)…-NH2] |
| 131 | {Biotin-PEG4′}-GDDCAYHKGELVWCTFH-NH2 (disulfide 4-14 (inferred)) [Type I(R8K) IgG-binding peptide, …-NH2] |
